Test results from article doi:10.1101/2021.08.20.457040 (bioRxiv, 2021).

How the values were obtained:
[1] = target: T1, His6-GIGYF2 GYF domain (residues 529-597) (human, UniProt Q6Y7W6 529-597); assay: pull-down
T1 sequence (looked up): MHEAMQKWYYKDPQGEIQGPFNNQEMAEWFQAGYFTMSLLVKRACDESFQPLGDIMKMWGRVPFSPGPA

[2] = target: T2, His6-GIGYF1 GYF domain (residues 470-538) (human, UniProt O75420 470-538); assay: pull-down
T2 sequence (looked up): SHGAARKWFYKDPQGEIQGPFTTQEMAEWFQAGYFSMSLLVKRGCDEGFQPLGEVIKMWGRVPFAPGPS

binding result [1]: binds | binding result [2]: binds
Binder: GWVPPPPGFAP (peptide, UniProt P26651 68-78, looked up) [GST-tagged fragment of the first tetra-proline region of TTP (residues 68-78)]
